Among the data in patent publication US20220332804A1 (CSL INNOVATION, published 2022) are Fold diff values, retold here.

What all share (assay): SPR, KD relative to WT C2;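 further: biacore SPR at 37 °C, anti-C2 mAbs captured via immobilised goat anti-human IgG, C2 alanine or serine surface mutants as analytes, 1:1 model fitted, double-referenced sensograms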
Background: SPR reads the build-up and loss of mass on a sensor chip optically.

Assay [1] concerns the target T1, human C2 K676S (human, UniProt P06681 21-752).
T1 sequence: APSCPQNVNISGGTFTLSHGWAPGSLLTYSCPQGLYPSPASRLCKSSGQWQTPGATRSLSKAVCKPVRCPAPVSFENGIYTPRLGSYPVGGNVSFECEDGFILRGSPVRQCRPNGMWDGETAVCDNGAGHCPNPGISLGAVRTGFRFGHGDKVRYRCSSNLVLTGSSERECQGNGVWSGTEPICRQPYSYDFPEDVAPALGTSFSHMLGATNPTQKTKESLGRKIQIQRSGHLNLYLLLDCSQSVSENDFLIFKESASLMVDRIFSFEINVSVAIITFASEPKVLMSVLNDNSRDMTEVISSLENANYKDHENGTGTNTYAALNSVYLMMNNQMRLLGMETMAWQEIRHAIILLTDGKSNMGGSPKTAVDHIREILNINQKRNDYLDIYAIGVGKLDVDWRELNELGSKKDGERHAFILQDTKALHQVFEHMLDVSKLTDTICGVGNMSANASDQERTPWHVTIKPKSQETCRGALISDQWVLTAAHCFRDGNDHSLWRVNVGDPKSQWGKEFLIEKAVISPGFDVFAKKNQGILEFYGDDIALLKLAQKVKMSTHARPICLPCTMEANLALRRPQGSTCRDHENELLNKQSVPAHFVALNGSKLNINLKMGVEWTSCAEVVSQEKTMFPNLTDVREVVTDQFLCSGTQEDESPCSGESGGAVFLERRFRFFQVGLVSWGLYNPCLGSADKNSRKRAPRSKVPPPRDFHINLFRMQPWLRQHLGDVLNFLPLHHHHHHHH

The target in assay [2] is T2, human C2 E556A (human, UniProt P06681 21-752).
T2 sequence: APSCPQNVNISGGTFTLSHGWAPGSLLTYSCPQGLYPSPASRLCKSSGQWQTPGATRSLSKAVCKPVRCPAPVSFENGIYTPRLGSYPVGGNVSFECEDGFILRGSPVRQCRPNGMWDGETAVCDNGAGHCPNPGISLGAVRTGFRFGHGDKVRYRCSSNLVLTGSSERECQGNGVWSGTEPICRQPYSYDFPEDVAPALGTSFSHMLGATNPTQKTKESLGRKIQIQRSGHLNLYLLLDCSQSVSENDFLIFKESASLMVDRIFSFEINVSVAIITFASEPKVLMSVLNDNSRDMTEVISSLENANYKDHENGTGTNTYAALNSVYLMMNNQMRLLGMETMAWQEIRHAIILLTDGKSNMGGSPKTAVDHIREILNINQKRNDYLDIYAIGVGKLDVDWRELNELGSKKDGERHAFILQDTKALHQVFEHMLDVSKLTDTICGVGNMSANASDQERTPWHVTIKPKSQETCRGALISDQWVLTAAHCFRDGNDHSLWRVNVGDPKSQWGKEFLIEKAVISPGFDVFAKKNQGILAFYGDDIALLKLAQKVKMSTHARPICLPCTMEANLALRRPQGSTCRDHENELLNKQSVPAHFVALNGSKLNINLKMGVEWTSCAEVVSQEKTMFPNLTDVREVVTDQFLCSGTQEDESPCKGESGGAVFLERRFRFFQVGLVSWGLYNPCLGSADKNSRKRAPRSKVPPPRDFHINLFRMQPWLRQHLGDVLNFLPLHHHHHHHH

Assay [3] addresses T3, human C2 D269A (human, UniProt P06681 21-752).
T3 sequence: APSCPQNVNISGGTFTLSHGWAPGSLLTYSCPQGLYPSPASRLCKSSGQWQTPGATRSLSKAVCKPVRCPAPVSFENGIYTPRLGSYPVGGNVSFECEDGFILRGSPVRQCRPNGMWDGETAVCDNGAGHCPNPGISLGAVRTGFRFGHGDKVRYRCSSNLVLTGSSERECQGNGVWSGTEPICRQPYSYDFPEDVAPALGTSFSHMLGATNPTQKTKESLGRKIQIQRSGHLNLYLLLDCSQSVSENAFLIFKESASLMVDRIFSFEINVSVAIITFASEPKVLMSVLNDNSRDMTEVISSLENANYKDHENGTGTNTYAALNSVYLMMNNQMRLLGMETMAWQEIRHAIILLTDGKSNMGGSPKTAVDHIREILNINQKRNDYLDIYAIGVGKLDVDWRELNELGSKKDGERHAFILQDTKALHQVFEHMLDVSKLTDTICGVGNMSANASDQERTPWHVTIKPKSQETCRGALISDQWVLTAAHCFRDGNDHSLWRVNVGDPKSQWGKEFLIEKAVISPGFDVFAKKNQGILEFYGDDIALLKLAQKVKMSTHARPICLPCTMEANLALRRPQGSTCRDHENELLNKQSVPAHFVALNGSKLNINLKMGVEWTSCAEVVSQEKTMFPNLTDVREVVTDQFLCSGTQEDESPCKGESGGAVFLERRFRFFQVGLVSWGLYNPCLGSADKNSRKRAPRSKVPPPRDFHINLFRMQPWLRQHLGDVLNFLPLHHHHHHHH

The target in assay [4] is T4, human C2 L701A (human, UniProt P06681 21-752).
T4 sequence: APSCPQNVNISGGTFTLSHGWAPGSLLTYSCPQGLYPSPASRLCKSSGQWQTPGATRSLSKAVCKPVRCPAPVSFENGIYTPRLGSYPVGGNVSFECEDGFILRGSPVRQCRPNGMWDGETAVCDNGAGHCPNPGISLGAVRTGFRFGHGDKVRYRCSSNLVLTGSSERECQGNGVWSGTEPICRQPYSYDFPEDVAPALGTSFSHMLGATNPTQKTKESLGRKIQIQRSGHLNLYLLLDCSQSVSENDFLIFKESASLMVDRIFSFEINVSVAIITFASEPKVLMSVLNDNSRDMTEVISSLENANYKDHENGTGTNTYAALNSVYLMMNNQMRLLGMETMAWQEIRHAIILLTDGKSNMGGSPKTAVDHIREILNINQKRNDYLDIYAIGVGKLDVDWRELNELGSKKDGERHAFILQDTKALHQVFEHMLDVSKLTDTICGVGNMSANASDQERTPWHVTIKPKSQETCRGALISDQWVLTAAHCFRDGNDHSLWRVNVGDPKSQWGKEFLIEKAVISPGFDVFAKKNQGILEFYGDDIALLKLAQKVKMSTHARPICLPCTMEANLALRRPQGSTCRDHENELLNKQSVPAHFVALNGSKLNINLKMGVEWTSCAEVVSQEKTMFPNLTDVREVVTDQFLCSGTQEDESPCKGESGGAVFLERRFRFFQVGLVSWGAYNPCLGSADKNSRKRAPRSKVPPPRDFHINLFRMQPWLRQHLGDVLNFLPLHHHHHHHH

B1: RF16-226 (antibody, human IgG4 S228P, lambda)
heavy: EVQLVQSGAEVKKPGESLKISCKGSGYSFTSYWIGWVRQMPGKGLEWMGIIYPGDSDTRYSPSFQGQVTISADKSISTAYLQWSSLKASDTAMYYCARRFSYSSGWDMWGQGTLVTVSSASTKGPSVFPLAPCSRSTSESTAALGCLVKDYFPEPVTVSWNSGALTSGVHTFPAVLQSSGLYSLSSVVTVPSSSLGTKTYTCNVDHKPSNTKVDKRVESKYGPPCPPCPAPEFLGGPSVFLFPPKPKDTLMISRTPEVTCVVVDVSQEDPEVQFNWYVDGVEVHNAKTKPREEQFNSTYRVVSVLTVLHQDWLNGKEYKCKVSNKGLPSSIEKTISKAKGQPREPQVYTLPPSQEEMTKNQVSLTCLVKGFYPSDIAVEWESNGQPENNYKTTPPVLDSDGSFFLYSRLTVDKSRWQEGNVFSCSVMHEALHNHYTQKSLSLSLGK
light: SYELTQPPSVSVSPGQTARITCSGDALTSKYVAWYQQKSGLAPLLVIYEDTRRPSGIPAKFSGSSSGSVATLTISGAHGDDEADYYCYSTDASGHQRVFGGGTKLTVLSQPKAAPSVTLFPPSSEELQANKATLVCLISDFYPGAVTVAWKADGSPVKAGVETTKPSKQSNNKYAASSYLSLTPEQWKSHRSYSCQVTHEGSTVEKTVAPTECS
notes: pH-dependent anti-C2 antibody from a phage display library; also called WT
In the case of B1, the Fold diff in assay [1] was found to be 2 fold; in assay [2], 1 fold; in assay [3], 1 fold; in assay [4] it was 16 fold.
